From patent publication US20190083609A1, “TOFACITINIB AS VACCINATION IMMUNE MODULATOR” (HELMOLTZ ZENTRUM MÜNCHEN - DEUTSCHES FORSCHUNGSZENTRUM FÜR …, priority 2016, published 2019)

What was measured:
human naive CD4+ T cells = assay: Differentiation of human naive CD4+ T cells into FOXP3+ CD4+ T cells (flow cytometry); assay type: cell-based; settings: for increase of the percentage of FOXP3 expressing cells: average of 3 donors versus polarization control; for FOXP3 producing cells within the living CD4+ T cell population: range of 3 donors, control 17.7-43.6%, 5 days
Experimental: For the differentiation of human naive CD4^+ T cells into FOXP3^+ CD4^+ T cells, human peripheral blood mononuclear cells were isolated from heparinized whole blood by standard density gradient centrifugation (Lymphoprep, Axis Shield, Oslo, Norway). Naive CD4^+ T cells were isolated using the Naive CD4^+ T cell Kit II (Miltenyi Biotec, Bergisch Gladbach, Germany) and by additional depletion of CD45RO^+ cells (CD45RO microbeads, Miltenyi Biotec). Cells were cultured in RPMI 1640 (Thermo Fisher Scientific, Waltham, Mass. USA) complete (10% FCS, Biochrom, Merck, Berlin, Germany; 2 mM L-glutamine, 100 U/mL Penicillin/Streptomycin, Thermo Fisher Scientific) in 24-well plates at a concentration of 1×10^6 cells/mL at 37° C. After isolation, cells were stimulated with plate-bound anti-CD3 (10 μg/mL; clone UCHT1, BD Biosciences) and 2 μg/mL anti-CD28 (clone CD28.2, BD Biosciences, 2 μg/mL) in solution and cultured for five days. To induce FOXP3 expression, the culture medium was supplemented with 50 U/mL rIL-2 (Novartis, Nurnberg, Germany) and 5 ng/mL TGF-01 (Promokine). Beneath this control, cells were cultured in the presence of different concentrations of Tofacitinib, Rapamycin (Sigma-Aldrich) and Cyclosporine A (Sigma-Aldrich). After three days of culture, half of the medium was removed and replaced by fresh RPMI 1640 complete, supplemented with the same doses of cytokines and agents as at day 0.
After five days of culture, the cells were washed with ice-cold PBS and stained with LIVE/DEAD Fixable Aqua Dead Cell Stain Kit (Thermo Fisher Scientific) according to the manufacturer's protocol. Moreover the cells were stained 1:300 with anti-CD4-Alexa Flour700 (BioLegend) and 1:100 with anti-FOXP3-eFlour450 (eBiosciences, affymetrix, Frankfurt am Main, Germany) by using the FOXP3/Transcription Factor Staining Buffer Set (eBiosciences, affymetrix) according to manufacturer's protocol. The acquisition of cells was performed with BD FACSDIVA 7.0 on a BD
LSR Fortessa (BD Biosciences). Data were analyzed with the software FlowJo (Tree Star, Ashland, Oreg.), the lymphocyte population was gated on CD4^+ cells and dead cells were excluded from the analysis.

[1] = tested on: T cells (total splenocytes from wild type mice); assay: T cell stimulation in cell culture (viable cells by CellTiter-Glo); assay type: cell-based, mouse; settings: Tofacitinib 50, 150, 500 ng/ml; IL-2/anti-CD3 low and high stimulation; 4 days
Experimental: (§3) For the T and B cell stimulation spleen cell from wild type mice were isolated and cells were cultivated in 200 μl/well in RPMI complete in cell culture plates (100,000 cells/well). For T cell stimulation total splenocytes were incubated 4 days with 1 ng/ml II-2 and 1 pg/ml anti-CD3 (Low) or 5 ng/ml II-2 and 10 pg/ml anti-CD3 (High) and three varying concentrations of Tofacitinib 50 ng/ml, 150 ng/ml and 500 ng/ml. For B cell stimulation cells were stimulated 8 days by incubation with 1 pg/ml anti-CD40 and 1L4 1 ng/ml (Low) and with 1 pg/ml anti-CD40 and 5 ng/ml (High) and three varying concentrations of Tofacitinib 50 ng/ml, 150 ng/ml and 500 ng/ml. The number of viable cells was determined by CellTiter-Glo Assay (Promega) and IgE concentration in the supernatant was measured by ELISA.

[2] = tested on: B cells (spleen cells from wild type mice); assay: B cell stimulation in cell culture (CellTiter-Glo; IgE ELISA of supernatant); assay type: cell-based, mouse; settings: Tofacitinib 50, 150, 500 ng/ml, 8 days
Experimental: as §3

[3] = humans; cited from earlier work
OVA-allergic mice [4] = assay: Systemic (plasma) cytokine profile in OVA allergic airway inflammation / ASIT model; assay type: in vivo, mouse; settings: after OVA-aerosol challenge
Experimental: (§1) For allergic sensitization and allergen-challenge, mice were treated twice by intraperitoneal injection of […] OVA (chicken ovalbumin, Sigma, Germany) and 0.5 mg aluminum hydroxide (alum; 40 mg magnesium/40 mg alum per ml; inject® ThermoFischer, Rockford, USA) in 200 μl phosphate buffered saline (PBS) at day (D) 1 and D-7 as previously described (Aguilar-Pimentel J A, Alessandrini F, Huster K M, Jakob T, Schulz H, Behrendt H, et al. Specific CD8 T cells in IgE-mediated allergy correlate with allergen dose and allergic phenotype, Am J Respir Crit Care Med 2010; 181:7-16, and Fuchs H, Gailus-Durner V, Adler T, Aguilar-Pimentel J A, Becker L, Calzada-Wack J, et al. Mouse phenotyping, Methods 2011; 53:120-35). Subsequently, mice were challenged by inhalative exposure to OVA aerosol (1% in PBS) for 10 min once a day at D-49, 52 and 55. 24 h after the last challenge (D-56) blood samples were collected and animals sacrificed to obtain bronchoalveolar lavage (BAL) samples. […]
Mouse blood samples were collected before and after challenge as previously described (Aguilar-Pimentel J A, Alessandrini F, Huster K M, Jakob T, Schulz H, Behrendt H, et al. Specific CD8 T cells in IgE-mediated allergy correlate with allergen dose and allergic phenotype, Am J Respir Crit Care Med 2010; 181:7-16; Fuchs H, Gailus-Durner V, Adler T, Aguilar-Pimentel J A, Becker L, Calzada-Wack J, et al. Mouse phenotyping, Methods 2011; 53:120-35 and Fulton R J, McDade R L, Smith P L, Kienker L J, Kettman J R, Jr. Advanced multiplexed analysis with the FlowMetrix system, Clin Chem 1997; 43:1749-56) by puncturing the retro-orbital plexus (Li-heparin-coated tubes, KADE, Numbrecht, Germany) under isoflurane anesthesia. […] Plasma total IgE was measured using a classical immunoassay isotope-specific sandwich ELISA. […] Signal intensities of labeled total murine IgE were measured at 450 nm in a standard microwell ELISA reader and results reported in ng/ml based on a standard curve of purified IgE. […]

OVA-allergic mice [5] = assay: BAL cell infiltration by flow cytometry in OVA allergic airway inflammation / ASIT model; assay type: in vivo, mouse
Experimental: as §1, with “53:120-35).” for “53:120-35). Subsequently, mice were challenged by inhalative exposure to OVA aerosol (1% in PBS) for 10 min once a day at D-49, 52 and 55. 24 h after the last challenge (D-56) blood samples were collected and animals sacrificed to obtain bronchoalveolar lavage (BAL) samples.”
Four experimental groups of mice each group consisting of 14 mice were analyzed in parallel (FIGS. 1 and 2): […]
Flow cytometry was performed to quantify cell surface markers of BAL cells using the following monoclonal antibodies: anti-CD8a, anti-Lytic, anti-CD4, anti-CD62L, anti-CD3, anti-CD25, anti- GO, anti-CD19, anti-CD11 b, anti-CD11 c, and anti-MHC-II (Fuchs H, Gailus-Durner V, Adler T, Aguilar-Pimentel J A, Becker L, Calzada-Wack J, et al. Mouse phenotyping, Methods 2011; 53:120-35). Data were acquired using a LSRII flow cytometer (BD Bioscience) and further analyzed with FACSDiVa (BD Bioscience) and Flowjo V.7.2.2 (Tree star, Ashland, USA) software. […]

OVA-allergic mice [6] = assay: Cytokine profile in BAL fluid (MSD multiplex) in OVA allergic airway inflammation / ASIT model; assay type: in vivo, mouse
Experimental: (§2) For allergic sensitization and allergen-challenge, mice were treated twice by intraperitoneal injection of […] OVA (chicken ovalbumin, Sigma, Germany) and 0.5 mg aluminum hydroxide (alum; 40 mg magnesium/40 mg alum per ml; inject® ThermoFischer, Rockford, USA) in 200 μl phosphate buffered saline (PBS) at day (D) 1 and D-7 as previously described (Aguilar-Pimentel J A, Alessandrini F, Huster K M, Jakob T, Schulz H, Behrendt H, et al. Specific CD8 T cells in IgE-mediated allergy correlate with allergen dose and allergic phenotype, Am J Respir Crit Care Med 2010; 181:7-16, and Fuchs H, Gailus-Durner V, Adler T, Aguilar-Pimentel J A, Becker L, Calzada-Wack J, et al. Mouse phenotyping, Methods 2011; 53:120-35). Subsequently, mice were challenged by inhalative exposure to OVA aerosol (1% in PBS) for 10 min once a day at D-49, 52 and 55. 24 h after the last challenge (D-56) blood samples were collected and animals sacrificed to obtain bronchoalveolar lavage (BAL) samples.
For allergen-specific-immunotherapy (ASIT), animals were treated by subcutaneous injection of 1 mg OVA D-22, and 0.5 mg OVA D-29. For treatment with Tofacitinib, two doses per day were administrated on D-20 to D-24, and D-27 to D-31.
Flow cytometry was performed to quantify cell surface markers of BAL cells using the following monoclonal antibodies: anti-CD8a, anti-Lytic, anti-CD4, anti-CD62L, anti-CD3, anti-CD25, anti- GO, anti-CD19, anti-CD11 b, anti-CD11 c, and anti-MHC-II (Fuchs H, Gailus-Durner V, Adler T, Aguilar-Pimentel J A, Becker L, Calzada-Wack J, et al. Mouse phenotyping, Methods 2011; 53:120-35). Data were acquired using a LSRII flow cytometer (BD Bioscience) and further analyzed with FACSDiVa (BD Bioscience) and Flowjo V.7.2.2 (Tree star, Ashland, USA) software. Cytokines from BAL were analyzed by a multiplex measurement of proinflammatory cytokines from Meso Scale Discovery electrochemiluminescence assay (MSD, USA).

OVA-allergic mice [7] = assay: Plasma immunoglobulins (total IgE ELISA, IgG1 MSD) after challenge in OVA allergic airway inflammation / ASIT model; assay type: in vivo, mouse
Experimental: as §2
For allergen-specific-immunotherapy (ASIT), animals were treated by subcutaneous injection of 1 mg OVA D-22, and 0.5 mg OVA D-29. For treatment with Tofacitinib, two doses per day were administrated on D-20 to D-24, and D-27 to D-31. […]

Molecule: CO[C@H]1C[C@@H]2CC[C@@H](C)[C@@](O)(O2)C(=O)C(=O)N2CCCC[C@H]2C(=O)O[C@H]([C@H](C)C[C@@H]2CC[C@@H](O)[C@H](OC)C2)CC(=O)[C@H](C)/C=C(\C)[C@@H](O)[C@@H](OC)C(=O)[C@H](C)C[C@H](C)/C=C/C=C/C=C/1C [Rapamycin]
- FOXP3 expression relative to control (human naive CD4+ T cells; concentration not given): 1.3 fold

Molecule: C[C@@H]1CCN(C(=O)CC#N)C[C@@H]1N(C)c1ncnc2[nH]ccc12 [Tofacitinib, 3-((3R, 4R)-4-methyl-3-[methyl-(7H-pyrrolo[2,3-d]pyrimidin-4-yl)-amino]-piperidin-1-yl)-3-oxopropionitrile]
- increase of the percentage of FOXP3 expressing cells (human naive CD4+ T cells; 0.1 μM): about 2.4 (+/−0.7) fold
- FOXP3 producing cells within the living CD4+ T cell population (human naive CD4+ T cells; 0.1 μM): 57.2-77.1%
- increase of the percentage of FOXP3 expressing cells (human naive CD4+ T cells; 1 μM): ~2.5 (+/−1.3) fold
- FOXP3 producing cells within the living CD4+ T cell population (human naive CD4+ T cells; 1 μM): 51.1-70.6%
- FOXP3-enhancing effect (human naive CD4+ T cells; 10 μM): diminished
- cytotoxicity (human naive CD4+ T cells; 10 μM, data not shown): induced cytotoxicity
- proliferation of T cells [1]: significantly decreased
- proliferation of B cells ([2]; anti-CD40/IL4 low and high stimulation): significantly decreased
- IgE production by B cells ([2]; anti-CD40/IL4 stimulation, supernatant ELISA): decreased
- mean terminal plasma half-life [3]: 3.2 h

B1: OVA-ASIT: allergen-specific immunotherapy: subcutaneous injection of chicken ovalbumin (OVA) in OVA-sensitized mice (protein, UniProt P01012 2-386, looked up)
Ovalbumin: GSIGAASMEFCFDVFKELKVHHANENIFYCPIAIMSALAMVYLGAKDSTRTQINKVVRFDKLPGFGDSIEAQCGTSVNVHSSLRDILNQITKPNDVYSFSLASRLYAEERYPILPEYLQCVKELYRGGLEPINFQTAADQARELINSWVESQTNGIIRNVLQPSSVDSQTAMVLVNAIVFKGLWEKAFKDEDTQAMPFRVTEQESKPVQMMYQIGLFRVASMASEKMKILELPFASGTMSMLVLLPDEVSGLEQLESIINFEKLTEWTSSNVMEERKIKVYLPRMKMEEKYNLTSVLMAMGITDVFSSSANLSGISSAESLKISQAVHAAHAEINEAGREVVGSAEAGVDAASVSEEFRADHPFLFCIKHIATNAVLFFGRCVSP
- effects on IL-2 plasma levels (OVA-allergic mice [4]): no significant effects
- inhibition of IL-1beta plasma levels (OVA-allergic mice [4]): 41%
- reduction of IL-6 plasma levels (OVA-allergic mice [4]): 44%
- suppression of total broncho-alveolar lavage cell infiltration (OVA-allergic mice [5]; compared to OVA-allergic mice, BAL 24 h after last challenge (D-56)): 88%
- eosinophil BAL cell infiltration (OVA-allergic mice [5]; median [1st, 3rd quantile], OVA-allergic mice 81%, BAL at D-56): 63.18%
- IFN-γ in BAL fluid (OVA-allergic mice [6]; barely detectable): marginally reduced
- IL-2 in BAL fluid (OVA-allergic mice [6]; barely detectable): marginally reduced
- IL-5 secretion in BAL (OVA-allergic mice [6]; mouse, in vivo): increase
- secretion of Th2-cytokine IL-4 in BAL (OVA-allergic mice [6]; mouse, in vivo): reduced
- inhibition of IL-1 beta secretion in BAL fluid (OVA-allergic mice [6]; versus OVA-allergic mice): 80%
- inhibition of IL-6 secretion in BAL fluid (OVA-allergic mice [6]; versus OVA-allergic mice): 82%
- inhibition of TNF-a secretion in BAL fluid (OVA-allergic mice [6]; versus OVA-allergic mice): 84%
- inhibition of chemokine CXCL1 in BAL fluid (OVA-allergic mice [6]; versus OVA-allergic mice): 21%
- total IgG1 levels (OVA-allergic mice [7]; median [quantiles], OVA-allergic mice 0.8267 mg/ml): 1.936 mg/mL
- reduction of total IgE-levels (OVA-allergic mice [7]; versus OVA-allergic mice): 43.5%
